Results taken from article PMC5308204 (Nature genetics, 2010).
Substitutions are numbered along the chain they refer to.

B1: Myc-tagged VIPAR (natural protein, human, UniProt Q9H9C1 1-493, looked up)
chain: MNRTKGDEEEYWNSSKFKAFTFDDEDDELSQLKESKRAVNSLRDFVDDDDDDDLERVSWSGEPVGSISWSIRETAGNSGSTHEGREQLKSRNSFSSYAQLPKPTSTYSLSSFFRGRTRPGSFQSLSDALSDTPAKSYAPELGRPKGEYRDYSNDWSPSDTVRRLRKGKVCSLERFRSLQDKLQLLEEAVSMHDGNVITAVLIFLKRTLSKEILFRELEVRQVALRHLIHFLKEIGDQKLLLDLFRFLDRTEELALSHYREHLNIQDPDKRKEFLKTCVGLPFSAEDSAHIQDHYTLLERQIIIEANDRHLESAGQTEIFRKHPRKASILNMPLVTTLFYSCFYHYTEAEGTFSSPVNLKKTFKIPDKQYVLTALAARAKLRAWNDVDALFTTKNWLGYTKKRAPIGFHRVVEILHKNNAPVQILQEYVNLVEDVDTKLNLATKFKCHDVVIDTYRDLKDRQQLLAYRSKVDKGSAEEEKIDALLSSSQIRWKN
B2: Myc-tagged VPS16 (natural protein, human, UniProt Q9H269 1-839, looked up)
chain: MDCYTANWNPLGDSAFYRKYELYSMDWDLKEELRDCLVAAAPYGGPIALLRNPWRKEKAASVRPVLDIYSASGMPLASLLWKSGPVVSLGWSAEEELLCVQEDGAVLVYGLHGDFRRHFSMGNEVLQNRVLDARIFHTEFGSGVAILTGAHRFTLSANVGDLKLRRMPEVPGLQSAPSCWTVLCQDRVAHILLAVGPDLYLLDHAACSAVTPPGLAPGVSSFLQMAVSFTYRHLALFTDTGYIWMGTASLKEKLCEFNCNIRAPPKQMVWCSRPRSKERAVVVAWERRLMVVGDAPESIQFVLDEDSYLVPELDGVRIFSRSTHEFLHEVPAASEEIFKIASMAPGALLLEAQKEYEKESQKADEYLREIQELGQLTQAVQQCIEAAGHEHQPDMQKSLLRAASFGKCFLDRFPPDSFVHMCQDLRVLNAVRDYHIGIPLTYSQYKQLTIQVLLDRLVLRRLYPLAIQICEYLRLPEVQGVSRILAHWACYKVQQKDVSDEDVARAINQKLGDTPGVSYSDIAARAYGCGRTELAIKLLEYEPRSGEQVPLLLKMKRSKLALSKAIESGDTDLVFTVLLHLKNELNRGDFFMTLRNQPMALSLYRQFCKHQELETLKDLYNQDDNHQELGSFHIRASYAAEERIEGRVAALQTAADAFYKAKNEFAAKATEDQMRLLRLQRRLEDELGGQFLDLSLHDTVTTLILGGHNKRAEQLARDFRIPDKRLWWLKLTALADLEDWEELEKFSKSKKSPIGYLPFVEICMKQHNKYEAKKYASRVGPEQKVKALLLVGDVAQAADVAIEHRNEAELSLVLSHCTGATDGATADKIQRARAQAQKK

Assays:
Assay in all cases: co-IP
HA-tagged VPS33B = target: T1, HA-tagged VPS33B (human, UniProt Q9H267 1-617)
T1 sequence (looked up): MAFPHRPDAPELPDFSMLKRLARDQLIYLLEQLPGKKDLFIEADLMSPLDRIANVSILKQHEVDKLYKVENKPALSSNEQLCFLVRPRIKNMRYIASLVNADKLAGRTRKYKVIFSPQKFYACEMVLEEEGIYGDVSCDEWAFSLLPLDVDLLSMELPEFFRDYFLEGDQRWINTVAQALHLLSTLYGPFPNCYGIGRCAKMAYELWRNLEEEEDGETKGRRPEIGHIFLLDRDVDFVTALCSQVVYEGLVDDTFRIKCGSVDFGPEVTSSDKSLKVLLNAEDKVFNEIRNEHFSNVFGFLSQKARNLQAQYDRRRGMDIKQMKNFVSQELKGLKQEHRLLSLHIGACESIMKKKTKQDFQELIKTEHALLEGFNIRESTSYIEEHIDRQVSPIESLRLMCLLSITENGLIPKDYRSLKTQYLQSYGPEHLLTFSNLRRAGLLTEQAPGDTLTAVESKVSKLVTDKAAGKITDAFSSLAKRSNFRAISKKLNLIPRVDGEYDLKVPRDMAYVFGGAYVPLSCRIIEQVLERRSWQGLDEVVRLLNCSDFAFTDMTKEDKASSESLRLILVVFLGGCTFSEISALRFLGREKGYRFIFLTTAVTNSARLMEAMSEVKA

[1] = target: T2, HA-tagged VPS33B (L30P) mutant (human, UniProt Q9H267 1-617, L30P)
T2 sequence (looked up): T1 sequence (looked up) with L30P

HA-tagged VPS33A = target: T3, HA-tagged VPS33A (UniProt Q96AX1 1-596)
T3 sequence (looked up): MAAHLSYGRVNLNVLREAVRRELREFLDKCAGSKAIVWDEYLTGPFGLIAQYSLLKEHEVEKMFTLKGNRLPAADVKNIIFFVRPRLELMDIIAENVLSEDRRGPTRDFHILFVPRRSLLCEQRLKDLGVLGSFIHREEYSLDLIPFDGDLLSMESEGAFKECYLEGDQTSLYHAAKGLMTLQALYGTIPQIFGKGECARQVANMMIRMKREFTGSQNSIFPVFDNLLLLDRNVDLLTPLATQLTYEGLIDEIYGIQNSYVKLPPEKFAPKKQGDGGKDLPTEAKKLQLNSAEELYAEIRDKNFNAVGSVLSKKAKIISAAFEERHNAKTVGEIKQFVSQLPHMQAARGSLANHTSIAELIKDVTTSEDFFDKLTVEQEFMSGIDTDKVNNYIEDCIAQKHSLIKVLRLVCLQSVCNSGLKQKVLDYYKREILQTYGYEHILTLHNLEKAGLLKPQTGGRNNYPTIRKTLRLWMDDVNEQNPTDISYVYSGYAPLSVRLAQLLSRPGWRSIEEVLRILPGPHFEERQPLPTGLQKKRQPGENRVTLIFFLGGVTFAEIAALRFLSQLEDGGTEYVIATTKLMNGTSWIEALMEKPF

| Binder | percent of the Myc-tagged input recovered (HA-tagged VPS33B) | percent of the Myc-tagged input recovered [1] | percent of the Myc-tagged input recovered (HA-tagged VPS33A) |
| --- | --- | --- | --- |
| B1 | 28.6% | 23.8% |  |
| B2 |  |  | 28.2% |
